Test results reported in the supplement of paper PMC12636428.

System: Saccharomyces cerevisiae
Assay: transcriptional activation domain activity (GFP:mCherry ratio, weighted mean of sorted bins, harmonized to initial dataset scale) (arbitrary fluorescence ratio units); higher = stronger transcriptional activation
Conditions: beta-estradiol 1 µM; induction time 4 h
Summary of the method: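 Sorting into 8 bins by GFP:mCherry ratio followed a 4-hour hold at 30 °C after cultures were diluted 1:5 into SC with 1 uM beta-estradiol. The yeast diploids carried a GFP reporter and had barcoded protein tiles, fused to an estradiol-inducible synthetic transcription factor, integrated at URA3. Barcodes were then sequenced, and tiles with under 50 reads were removed. Activation activity is the read-weighted mean of bin median fluorescence, averaged across barcodes and linearly mapped onto the initial dataset scale.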

Sequence | transcriptional activation domain activity
HFILLHCNQLKNWFNNNQITWVIPKIGKCSHKIQVVSSHVLRAVHLFSQKYYL | 58700
HFILTGSDLGWVLVYFDYDDRIYIFLMEWCKLNCYWIILMYIWNILPTALLLQ | 34300
HFILTYLLLFMSVPFEFVMASFEFFHLIHCLKFPNTFYSFFFSFVFFLRHFVF | 56700
HFLGALIMLLGGYFHANLIHFGSYIWPSFLVWGLDRLIRLARVVYFNHLYFGF | 34500
HFLLLPSLFLFSSFLPFLTSLPPHSPFFFLSFLFFSPLFSLFFLFINSTHFLP | 41700
HFNSVTTTYFKDGQSFYDILKCILPCIVDFLPKNSILVHCICAYLHFRILVGL | 53500
HFPKRSFRHWVGLMFFSFLTCCTLLLQFRAAVTLTVNSHLPWITRSGLWYLVL | 68800
HFSLLWPPHCSLWCTLFFLLIGHFVFILCLCYSVFFSFPSFLLIVSCFLLCFP | 37800
HFSPSLSISSLPSLCCLFFFIIFSTSLLWSFFPLPYLTSPYLTLPYTTFFLFP | 48000
HFVELSTILGIIILHSPAICLQVVLLLFCGLHSVVVALMLDRVPPLIYLAFFV | 66100
HGAPPPPPPPPPPPPPVAGGPPPPPPPPPPGGAPPPPPPPPPPGGGGSAPLPA | 44500
HGEERGWIYLVQYRGIAWLLRRLACCRFEILAIFHLSNLNHPVNVLADSYDRE | 19700
HGPMFHFSISNWVEGAKLAGHGNPTGHNPELILNNFRTPLGLLTAHLFKTMFP | 52200
HGRARPSRASASVPARKKTKSKVKKRASAAVVGSDDEDGEERPKKRRGGGGGA | 33100
HGSTLTTIMIQVSEVMILPSFFQELLDTIRTRCPRVVNFMIWFQVWNWMMVPV | 73300
HGTHCSGTVAGKKYGVAKKAHIKAVKVLRSNGSGSMSDVVKGVEFAAESHAGE | 38600
HGTLCDIYLVIILKCCGDDDNSVSLVEGIALAPSSARSNAFERVGKFGGGPES | 46900
HHDNVNPTIPPPDNYILNNENDDGLDNLLGMDYYNIDDLLTQELRDLDIPLVP | 140000
HHFVCAFYFQDSWGLGLMKRLLIVVCLLLATYVFPLPLTSPPWSFIWKQSWVI | 48300
HHFVWERCLPDQMFVFAEDDIAHILNVTISSLELPMKTRQEIWVPSNVLFLCA | 54200
HHLHAFLLGLGFLFSLLICVSSSCLVSSSLLRLLLLLPRFARWIRFLLYILLL | 64400

Sequence | transcriptional activation domain activity
HHLRLHWFADVLNYRARDTLFSILRIVSHIRSLRLFAVYLLRWERQRHEAKTV | 49800
HHLSSQLVFSRSRFFYSSFTSWINVFLVISLIVFLLSILLLFLIIFLLHYIFF | 24800
HHLVITHVILFCLITFRCFTVIVRSIYERWHIKSAVIVLDLGSSWGLAANVPW | 43600
HHTHHSSSTDWSRAFRKWSVRLLLAIAFPTTYLLGAAMPPKIILMLYPRYSPP | 39100
HHTLPYRFRLDGHAAYLGLFIHFLSVLVVVYIFRLEVCVRYRPGWMRCQCWWR | 81600
HIDSFLDQMCKVAEGGGFSLSTLADCVILFRDLARIYQEPFSSPFLRLLYAYT | 65300
HIFYTQLYPAYDLPKKLQEDTELETEQENQMLNQVGNINYTHDFSLSHEIDDL | 57800
HIHCFVALFLVMPFFVLVFIVFLGGCNYCLQKKLVLPSLLLTFVIYGGGRLGF | 37900
HINYFSLSLIIFYFLIFFISNYLLIKFLFFNYFLPKWWSSRPLRSMIYSLFSI | 42500
HISCLIISVFLCELMVHIPLSTLFYVGLYFPVHFISTPGYFYFIYCILFQLFL | 47300
HKEASDKENTGSGQAQKNNKVKANTGARVKDEQEAKKKVGRPKKGTEAGTGAG | 39500
HKLALNLKTAWKGRKYEIPLFGVHIAGQYVSTYIFYEVASFKAFFNYIFSFTR | 69100
HKLKHVLAEHGARMSIHLGRRQVTHVILGRPAGGGGGAGGGLAGGKLQKEIQK | 42500
HKLVVQVLQSQLLILKILDLCVTFHWHSHRERYLGIGYPLNGSASSLSSNAPY | 41400
HKRKRTGQEEVAKKPKESRRDKKTRRKRTEPDEEIASADTKERRRKSAGAEKS | 20800
HKRRRDSVMMDYDLSNFFSSRQLDISKVLNGTEQNNSHVNDDVLTLSFPGETD | 35100
HKWIIPTPFASHAFHPVDGYLQSVPYHLFVFIFPLHRILYLVLFVLINFWTIF | 62300
HLCHLVPSLPFHLPFFFFEPFLSKTFTSFFLFFFLWLSPLNTNHPPIFLFFHT | 80200
HLFFLKNHHCFLSFIFFLFLFTLFFYFIFFLKLQFRKNNNYLFFLYKKFLTFF | 36800
HLGFRYWLLSATEIVNTIFLPSVIAYLYTVYIRFLLTYWLSYAIIAGSFMILF | 53000
HLGHEAQASIEEEEEEEEEEEEEEEEEERRGEGGSVRKATHKIAAATVASVGT | 33300

Sequence | transcriptional activation domain activity
HLINEDKYQSFSIKQWLPLVYNMLFYIKEKEELVLRINSSFTLRRFVEMAAKE | 50700
HLIVSLSLSIFLFYLFWCLSIHVCVCLVSIYYILLLASLCFFLFFFNYLPILL | 50300
HLKHTFVMDVAMSIGYLMAPVLVSACAFIWYVKVDNHELSASVVFVSITLFDM | 61800
HLLDTNCLLLILKMFGLQEVTNSVVSKVDSPENNFFRYCLMNYSKNPQPMRPE | 39100
HLLIKILATRFFLEAKKTTYAPLNDQGTLMPSVEWTIMAQLWRLARNKWFEAT | 51000
HLLILRFVAHFSHLGLGCSSYSLMFYVLSYLLYISLLSNIISLYPPSCLYLAH | 45400
HLLKWCNFGLLPHWLFHILILVSKSSLNNLIIAYVYCPLFFGCFLPSTYISCN | 58200
HLLSPHIAPELIELLVVRTFLQPHPWPVPSCATTGFLRTLAWISRWAWRHSPL | 43900
HLLVVAPLILAYLTVDDLSNLRLRLLGRCLRLLAISLAFLCACCCTSSSTPST | 58200
HLLYVYLVLIAVVISSYRCFLNVSTRSIVICLLTHAFWPPLTFIIVCSAFWIP | 73100
HLNGESSPQLVPHSHHQPHSDTDEEDWESIGAASLRNNSLAPNIDSVASSTNG | 45100
HLNPSWIFLFLFLFLFSPSPFYFLFLFFFFFFGGVPGNGFGFGILLYFFAAGI | 45700
HLQTITINSEGDCGHCLSKYGILVIPTLERVVLVSREGRYPWSSWYLELRVFS | 32100
HLRNDTRLIPGIKYLQMVLGRVRYCREIIAILARNGHRLPKGMLSTLVRLWLL | 34800
HLSLSPSLIPTLSFFLLLLYPLVFFIFIIYRGPLFFLFDLTHLICFIYILFIL | 27400
HLYQISLLLSIFVFFSQGLCRFLYYLPPVPFLTHISSTKLWVWIGLVACLTLK | 65800
HMALVHLFAFLDRFALFGKLYRAAQVVNRVTSPYVVLAWTSLYSFSLRVVART | 52400
HMESDEEKERKPKKARKQKAEGSGDEAEPKKKRRGKLKRGGGDHEEAAVAAGE | 39200
HMLLRQFLILNLFNLIYLHLFLLLWLLLQQLLYLMILFKFPIPYLLALSYRLS | 55300
